Drawing on patent US20090176209A1, this text covers percent of the total input genetic element DNA recovered in complex with the fusion protein on the mAb-coated surface for one substance.

The experiment deals with scArc-Vκ(E5)-HA fusion protein (Vκ(E5) fused to the C-terminus of scArc; pIE3AVκ(E5) series constructs) (phage P22). As to the kind of experiment: emulsion expression of the pIE3a^4AVκ(E5)-derived template; capture on 3F10-coated PCR tubes; quantitative PCR.

For the substance “αHA rat mAb 3F10 (Roche), High Affinity anti-HA monoclonal antibody”, the percent of the total input genetic element DNA recovered in complex with the fusion protein on the mAb-coated surface was more than 23%.
